Source: publication PMC9287160 (2022)

Legend:
Test in all cases: BLI
[1] = target: T1, human integrin αMβ2 headpiece fragment (human, UniProt P11215 17-1152; P05107 23-482)
[2] = target: T2, recombinant human αMβ2 αI domain (human)
T2 chain: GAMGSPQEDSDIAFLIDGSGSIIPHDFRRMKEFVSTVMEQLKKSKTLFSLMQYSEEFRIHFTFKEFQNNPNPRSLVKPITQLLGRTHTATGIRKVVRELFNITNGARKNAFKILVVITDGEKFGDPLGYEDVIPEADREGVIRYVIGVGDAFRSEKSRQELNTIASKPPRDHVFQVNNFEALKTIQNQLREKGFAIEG

[3] = target: T1, human integrin αMβ2 headpiece fragment; remark: listed apart in the source
[4] = target: T2, recombinant human αMβ2 αI domain

B1: biotinylated avi-tagged hCD11bNb1 (VHH)
VHH: QVQLVETGGGLVQAGGSLRLSCAASGNINSFNAMGWFRQAPGKQRELVAAITFGGRTNYADSVKGRFTISRDNTKGSVYLQMNSLKPEDTAVYYCAASENNLLTGVWHYWGRGTQVTVSS
modifications: biotin
[1]
  Kd: 0.85 nM
[2]
  Kd: 6.6 nM
[3]
  koff: 0.00047 s⁻¹
[4]
  koff: 0.0032 s⁻¹
